# Laboratory results as given in patent US20250382346A1, “NEURONAL PROMOTERS AND USES THEREOF” (priority 2023, published 2025).
# B1: AAV8R: AAV8 capsid with N385D, insertion of SEQ ID NO: 31 at position 588 and TS to IN mutation; Cap SEQ ID NO: 1 (protein)
# chain: MAADGYLPDWLEDNLSEGIREWWALKPGAPKPKANQQKQDDGRGLVLPGYKYLGPFNGLDKGEPVNAADAAALEHDKAYDQQLQAGDNPYLRYNHADAEFQERLQEDTSFGGNLGRAVFQAKKRVLEPLGLVEEGAKTAPGKKRPVEPSPQRSPDSSTGIGKKGQQPARKRLNFGQTGDSESVPDPQPLGEPPAAPSGVGPNTMAAGGGAPMADNNEGADGVGSSSGNWHCDSTWLGDRVITTSTRTWALPTYNNHLYKQISNGTSGGATNDNTYFGYSTPWGYFDFNRFHCHFSPRDWQRLINNNWGFRPKRLSFKLFNIQVKEVTQNEGTKTIANNLTSTIQVFTDSEYQLPYVLGSAHQGCLPPFPADVFMIPQYGYLTLNDGSQAVGRSSFYCLEYFPSQMLRTGNNFQFTYTFEDVPFHSSYAHSQSLDRLMNPLIDQYLYYLSRTQTTGGTANTQTLGFSQGGPNTMANQAKNWLPGPCYRQQRVSTTTGQNNNSNFAWTAGTKYHLNGRNSLANPGIAMATHKDDEERFFPSNGILIFGKQNAARDNADYSDVMLTSEEEIKTTNPVATEEYGIVADNLQRGNLADQDYTKTARQAATADVNSQGALPGMVWQNRDVYLQGPIWAKIPHTDGNFHPSPLMGGFGLKHPPPQILIKNTPVPADPPTTFNQSKLNSFITQYSTGQVSVEIEWELQKENSKRWNPEIQYTSNYYKSINVDFAVNTEGVYSEPRPIGTRYLTRNL
# B2: G88P3: 1395-bp shortened GPR88 promoter; SEQ ID NO: 45 (nucleic acid, listed as Homo sapiens)
# DNA: TCTAGATGTACCACTGACATCTGCTTTAAATCTTTTGCCCATTTCATTTTTACCCTCTAACCATTTCATTACTAAAACACAAAACAAACTCCGGAAAGGAGTTTGTTGATGAGAAAACACTGAAAGTACGATTTAAATTGAGGAATGGAGATTTTCTGTGGATAATTGTCTATGTTCCACTTTACCAAAGAAAAATGAATTTCAAGTAGTGCATAAAGTAATTCTCGTTAAAAAATGTGGGAATAAAGAGATCAGTCCTGGGTACTGGGAATATATTTATCTCACAGAAAAATCTTGCCCACAAAATGCATCAGACTGAGATGAAATACTCTAGGGTATATTAAATTTTATTCTAATATTGAAGGGAGGGAAAAAAAGGACGGAAAGAAAAATGAAACAGGATGAAAAATAAGGTGATTGGGAGAGAGAAAAGACAGAGAAACTTGTTAACGACAGGACTTTCTGAGCAAGATATTTTTCTTCCTTTTACAAGTTGGAAGCTATTGAATAATTCATGCCAAGCGTGGAAAGGCTGTCTTTTCCCTGGATGATGTATAACTAAGCAGGAGAGAGCTTCGAGTGGGTTCACCACATCAGCCACCACTCCTGCTTCTGAGCACAGGGTGCTCTCCTCTTGAGCTCAGCTTCTGCTTTTGCAGCCAAGCATTCTTGCTGCTGCTGCCTGCCTGCCCACCCGCCTGGGCTTGCAGCCCGCCACTTTACTTTCTCCAGCCCTGATACCAGCTGAGAAGTCTCCCTGCAGCTGCTAGTTCCTGCCCAGGACCATGTGTGTGGATGCTGCTTGGGAGAAGCGGGCACTTGCTCCTGGCACTGATCCCAGCTGAGTTTCTCCTGTTGATTTCTGGACCACTGATGCTGTTGCTGAGGAGGTATTTCCCGGCATCCCTCCCCCTGAGACACCGGCTAAGGACCAGCCTAAACGCAAGGTAACCTTCACCTCTTTCCCATGGGATTTTCCCCAGCTGGGATATCTCTGCTTTCTCCTGGAACTAGGTCCTCCAGCTGGCAACATATCTCTCTCTCTCTCTCTCTCTCTCTCTCTCTCTCTCTGTGTGTGTGTGTGTGTGTTGGGGGAGAAGAGGAGACTGTTTTAGGTATTGCTCTGTCCTAGGGCTTCCCCGATACCTGCTGAATCCAATGCAAAGTGGCCTTTCCCCTGGCTCTGGAGACATTTCCGAGGCAGGCACCTGTCATTTGCCACCCCCGTCCTCCTCCTCGAGCTCCCTTTCTCCCCCTCCCCCAGCCCATTATTCTGCTTCAGCCTTTTGTGTCAGTGGCAGAGGGCTGAAGGGATGTCTTTGCCCTTCTGGCAGGCAGGACAGTGTCAGGATGGACCGCGCTGCCAGAAGCCGACGCTAGCGAGGGAGGTGTGAA
# B3: G88P7: 896-bp shortened GPR88 promoter; SEQ ID NO: 46 (nucleic acid, listed as Homo sapiens)
# DNA: ATGCCAAGCGTGGAAAGGCTGTCTTTTCCCTGGATGATGTATAACTAAGCAGGAGAGAGCTTCGAGTGGGTTCACCACATCAGCCACCACTCCTGCTTCTGAGCACAGGGTGCTCTCCTCTTGAGCTCAGCTTCTGCTTTTGCAGCCAAGCATTCTTGCTGCTGCTGCCTGCCTGCCCACCCGCCTGGGCTTGCAGCCCGCCACTTTACTTTCTCCAGCCCTGATACCAGCTGAGAAGTCTCCCTGCAGCTGCTAGTTCCTGCCCAGGACCATGTGTGTGGATGCTGCTTGGGAGAAGCGGGCACTTGCTCCTGGCACTGATCCCAGCTGAGTTTCTCCTGTTGATTTCTGGACCACTGATGCTGTTGCTGAGGAGGTATTTCCCGGCATCCCTCCCCCTGAGACACCGGCTAAGGACCAGCCTAAACGCAAGGTAACCTTCACCTCTTTCCCATGGGATTTTCCCCAGCTGGGATATCTCTGCTTTCTCCTGGAACTAGGTCCTCCAGCTGGCAACATATCTCTCTCTCTCTCTCTCTCTCTCTCTCTCTCTCTCTCTCTGTGTGTGTGTGTGTGTGTTGGGGGAGAAGAGGAGACTGTTTTAGGTATTGCTCTGTCCTAGGGCTTCCCCGATACCTGCTGAATCCAATGCAAAGTGGCCTTTCCCCTGGCTCTGGAGACATTTCCGAGGCAGGCACCTGTCATCTGCCACCCCCGTCCTCCTCCTCGAGCTCCCTTTCTCCCCCTCCCCCAGCCCATTATTCTGCTTCAGCCTTTTGTGTCAGTGGCAGAGGGCTGAAGGGATGTCTTTGCCCTTCTGGCAGGCAGGACAGTGTCAGGATGGACCGCGCTGCCAGAAGCCGACGCTAGCGAGGGAGGTGTGAAGAGTTGGCCAG
# Legend:
# Assay type in all cases: in vivo, mice
# [1] = test system: striatonigral projection neurons (D1 MSNs); assay: Retrograde labeling of striatal MSNs after AAV injection into the SNr, EYFP+ cell counting; conditions: for labeled neurons, reporter expression in MSNs by promoter (FIG. 4B), mean±SEM: promoter comparison
# Method: To improve efficiency, multiple rounds of mutations of AAV capsids were performed on a series of different serotypes. Mutations were introduced at three sites in the AAV8 capsid protein to make AAV8R, including N385D, insertion of […] (SEQ ID NO: 31) at position 588, and TS711-7121N. Two additional mutations of V183E and N41 IS were incorporated into the AAV8R12 capsid protein (FIG. 1A). The labeling pattern of the AAV8R12 capsid and G88 promoter combination was determined.
# was inserted at the N587-R588 position; two other point mutations of the AAV2 Cap protein were made to develop rAAV2-retro. Similar mutations were then placed at equivalent positions for four other AAV serotypes (FIGS. 1A-1C and 25, TABLE 1), AAV1/5/6/8 (FIG. 1A). […] When administered into the SNr, 4.86±0.22 times EYFP positive MSNs in mice infected by AAV8R-hSyn-EYFP were observed as compared to those infected by rAAV2-retro-hSyn-EYFP (FIG. 2A-2C).
# Baseline infectivity of rAAV2-retro was approximately 0.2±0.03×10^4 cells per striatal hemisphere (using a hSyn promoter) (TABLE 2). […] Compared to the current standard retrograde AAV, rAAV2-retro, AAV8R12 labeled 7.72±0.78-times more MSNs after nigral delivery (FIG. 2B-2C, TABLE 1). […] The AAV8R12 was generated using the AAV8R plasmid as a template.
# Mice were anesthetized with sodium pentobarbital (Nembutal; 80 mg/kg, i.p.), and then placed into a stereotaxic device (KOPF). Eye cream was applied on both corneas to avoid dehydration. The skull above the targeted areas was thinned with a dental drill and carefully removed. Injections were conducted with a 10 μL syringe connected to a 33-Gauge needle (Neuros; Hamilton), using a microsyringe pump (Legato 130, KD Scientific). A total volume of 200 nL virus was injected into the SNr at a speed of 20 nL/min. The coordinates for the SNr were 3.4 mm posterior, 1.3 mm lateral, 4.8 mm ventral to the bregma.
# Images were acquired using a confocal microscope (Carl Zeiss, LSM880) and an Axiolmager. Z1 microscope with apotome (Carl Zeiss). Brain structures were identified microscopically and in digital photos using a mouse brain atlas. To analyze the number of EYFP+ cells in the striatum, slices from rostral to caudal striatum were used. Every sixth section was analyzed, and numbers of EYFP+ cells were multiplied by six to acquire the approximate total number and mean number of cells per animal. Images were processed using ImageJ (NIH, USA), and final quantifications were independently performed manually by two blinded experimenters.
# [2] = test system: striatum (STR); assay: Promoter screening: YFP-expressing neurons after injection of AAVs into the SNr, striatum; conditions: numbers of YFP-expressing neurons per animal
# Text: (§1) To find promoters that offer high levels of expression in MSNs, gene expression databases were scanned to identify a list of eight genes that have highly enriched striatal expression compared to other parts of the basal ganglia (BG). Genes highly expressed in the striatum, but not other parts of the basal ganglia, were first selected as candidates.
# (§2) Brain profiles of two epigenetic marks for enhancers and promoters, monomethylation of histone H3 lysine 4 (H3K4me1) and acetylation of histone H3 lysine 27 (H3K27ac) were checked and approximately 2 kilobase-long sequences around the transcriptional start site (TSS) that have high levels of H3K4me1 and/or H3K27ac were identified in mouse brain. Homologous sequences at equivalent positions of the human genome were then cloned onto an AAV backbone, and the activity of the homologous sequences in directing reporter expression was tested in mice after injections of AAVs into the SNr (FIG. 3A-C, TABLE 3).
# (§3) G88P2 (2259 bp) was cloned with the following primers: 5′-[…] (SEQ ID NO.: 36) and 3-[…] (SEQ ID NO.: 37). To increase the payload of AAV genome, the G88P2 promoter was shorted using restriction enzymes, and two derivatives, G88P3 and G88P7, were made which were 1395-bp and 896-bp long, respectively (FIG. 3A-3C). Comparative efficiency in labeling MSNs for the two shortened promoters was observed. For mice that received viral injections into the SNr, viruses expressing EYFP driven by G88P3 and G88P7 promoters labeled 3.7±0.66×104 and 3.95±0.73×104 MSNs per mouse, respectively, compared to 1.61±0.16×104 labeled MSNs by hSyn promoter (FIG. 4B).
# (§4) Region-selective promoter identification was based on the Allen Brain Atlas in situ hybridization (ISH) data (mouse.brain-map.org/). Genes highly expressed in the striatum but not in other parts of the basal ganglia were first selected as candidates. H3K4me 1 and H3K27ac are known epigenetic marks for active promoters and enhancers. Thus, we identified regions with high levels of these two chromatin modification marks in mouse brain as candidate regions based on the ENCODE annotation data on the UCSC Genome Browser (genome.ucsc.edu/). To further extend the promoters' potential application in primates, the sequences of interest were PCR-amplified from human genomic DNA. Based on the above strategies, GPR88 was selected as a candidate gene. […]
# (§5) Images were acquired using a confocal microscope (Carl Zeiss, LSM880) and an Axiolmager. […] Every sixth section was analyzed, and numbers of EYFP+ cells were multiplied by six to acquire the approximate total number and mean number of cells per animal. Images were processed using ImageJ (NIH, USA), and final quantifications were independently performed manually by two blinded experimenters.
# [3] = test system: substantia nigra (SN); assay: Promoter screening: YFP-expressing neurons after injection of AAVs into the SNr, substantia nigra; conditions: numbers of YFP-expressing neurons per animal
# Text: as §1, §2, §3, §4, §5
# [4] = test system: MSNs in nucleus accumbens; assay: Retrograde labeling of accumbal MSNs after delivery into ventral pallidum or lateral hypothalamus; conditions: stereotaxic delivery into ventral pallidum or lateral hypothalamus
Molecule,"labeled neurons, reporter expression in MSNs by promoter (FIG. 4B), mean±SEM ([1]; n=3 mice per group)",Activity Level STR [2],Activity Level SN [3],"EYFP positive / labeled MSNs compared to rAAV2-retro ([1]; after nigral delivery, hSyn-EYFP) [times]","labeled striatonigral projection neurons (FIG. 2C), mean±SEM ([1]; capsid comparison, injection into SNr of wild type mice, n=3 mice per group)","Mean (AAVs with capsid and promoter) ([1]; labeled cells after nigral injection in mice, b188 refers to it as cells per striatal hemisphere, SD and SEM in own columns)",labeling of MSNs in nucleus accumbens [4]
G88P2: 2259-bp promoter from the gene GPR88; SEQ ID NO: 44,36290±3705,++++ (>25k),+ (<5k),–,–,–,–
"R9P1: promoter from gene RGS9, 2152 bp; SEQ ID NO: 47",–,+++ (10k-25k),+ (<5k),–,–,–,–
B1,–,–,–,4.86±0.22,10092±463.9,10092,robust labeling of MSNs
B2,37026±6646,++++ (>25k),+ (<5k),–,–,–,–
B3,39460±7281,++++ (>25k),+ (<5k),–,–,–,–
